Kd data for 8 molecules are collected here from US20250197514A1 (INTERVET, published 2025).

The target of experiment [1] is T1, canine FcRn heterodimer (FCGRT large subunit p51 + beta-2-microglobulin), biotin-labeled (Canis lupus familiaris; Canis familiaris, biotin-labeled (site not stated; the chain carries an AviTag)).
T1 construct: also called FcRn/B2M; FcRn/β2M; not shown: AviTag, named only
T1 chain (part 1 of 2): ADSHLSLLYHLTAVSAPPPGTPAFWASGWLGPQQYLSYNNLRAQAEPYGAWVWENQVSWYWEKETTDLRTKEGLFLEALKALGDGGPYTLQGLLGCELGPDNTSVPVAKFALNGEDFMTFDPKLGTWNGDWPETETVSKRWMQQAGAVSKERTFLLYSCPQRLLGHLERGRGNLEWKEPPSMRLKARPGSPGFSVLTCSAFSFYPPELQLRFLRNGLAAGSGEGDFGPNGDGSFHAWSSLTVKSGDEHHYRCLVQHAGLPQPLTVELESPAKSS
T1 chain (part 2 of 2): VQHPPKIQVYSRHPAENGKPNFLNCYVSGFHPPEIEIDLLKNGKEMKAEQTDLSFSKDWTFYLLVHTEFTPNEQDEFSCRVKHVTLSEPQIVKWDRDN
Kind of experiment: BLI (Octet HTX), biotinylated FcRn/B2M on streptavidin biosensors, analyte 500-7.8 nM, pH 6.0, 1:1 fit. On the procedure: (§1) The binding of antibodies and IgG Fc fusion proteins to FcRn proteins was determined by Octet™ HTX using Streptavidin (SA) biosensors. First, biotin-labeled […] was loaded onto pre-hydrated SA biosensors for 60 s at a concentration of 10 μg/mL. Second, the biosensors were placed into pH 6.0 TBS/Casein buffer for the blocking phase for 180 s. Third, for the association phase, FcRn/B2M loaded biosensors were placed into 2-fold serial dilutions from 500 nM down to 7.8 nM of antibody or IgG Fc fusion protein in pH 6.0 or 7.4 TBS/Casein buffer for 15 s. Finally, the biosensors were placed into either pH 6.0 or pH 7.4 TBS/Casein buffer for the dissociation phase for 60 s. Analysis was performed using Octet Data Analysis 12.0 software and curves were fitted using a 1:1 binding model.
(BLI is a label-free optical method that tracks binding on a fibre tip over time.)

In experiment [2] the target is T1, canine FcRn heterodimer (FCGRT large …). Kind of experiment: BLI (Octet HTX), biotinylated FcRn/B2M on streptavidin biosensors, analyte 500-7.8 nM, pH 7.4, 1:1 fit. As for the experimental part:
as §1

B1: cIL-13Rα2-cIgGB-Fc-L (Fc fusion)
chain: SMLSNAEIKVNPPQDFEIVDPGYLGYLSLQWQPPLFPDNFKECTIEYELKYRNIDSENWKTIITKNLHYKDGFDLNKGIEAKINTLLPAQCTNGSEVRSSWAETTYWTSPQGNRETKIQDMDCVYYNWQYLVCSWKPGMGVHFDTNYQLFYWYEGLDHSAECTDYIKVNGKNMGCRFPYLESSDYKDFYICVNGSSESQPIRPSYFIFQLQNIVKPMPPDYLSLTVKNSEEINLKWNMPKGPIPAKCFIYEIEFTEDGTTWVTTTVENEIQITRTSNESQKLCFLVRSKVNIYCSDDGIWSEWSDEQCWKGDIWKETPKRENGRVPRPPDCPKCPAPEMLGGPSVFIFPPKPKDTLLIARTPEVTCVVVDLDPEDPEVQISWFVDGKQMQTAKTQPREEQFNGTYRVVSVLPIGHQDWLKGKQFTCKVNNKALPSPIERTISKARGQAHQPSVYVLPPSREELSKNTVSLTCLIKDFFPPDIDVEWQSNGQQEPESKYRTTPPQLDEDGSYFLYSKLSVDKSRWQRGDTFICAVMHEALLNHYTQESLSHSPGK
notes: also called cIL-13Ra2-cIgGB-Fc-L; H433L
The term Kd denotes the free concentration of one partner at which half of the binding sites on the other are occupied at equilibrium, for simple one-to-one binding. As for B1, the dissociation constant (Kd) in experiment [1] was determined as 12.3 nM; in experiment [2] it was 7210 nM.

B2: cIL-13Rα2-cIgGB-Fc-LF (Fc fusion)
chain: SMLSNAEIKVNPPQDFEIVDPGYLGYLSLQWQPPLFPDNFKECTIEYELKYRNIDSENWKTIITKNLHYKDGFDLNKGIEAKINTLLPAQCTNGSEVRSSWAETTYWTSPQGNRETKIQDMDCVYYNWQYLVCSWKPGMGVHFDTNYQLFYWYEGLDHSAECTDYIKVNGKNMGCRFPYLESSDYKDFYICVNGSSESQPIRPSYFIFQLQNIVKPMPPDYLSLTVKNSEEINLKWNMPKGPIPAKCFIYEIEFTEDGTTWVTTTVENEIQITRTSNESQKLCFLVRSKVNIYCSDDGIWSEWSDEQCWKGDIWKETPKRENGRVPRPPDCPKCPAPEMLGGPSVFIFPPKPKDTLLIARTPEVTCVVVDLDPEDPEVQISWFVDGKQMQTAKTQPREEQFNGTYRVVSVLPIGHQDWLKGKQFTCKVNNKALPSPIERTISKARGQAHQPSVYVLPPSREELSKNTVSLTCLIKDFFPPDIDVEWQSNGQQEPESKYRTTPPQLDEDGSYFLYSKLSVDKSRWQRGDTFICAVMHEALLFHYTQESLSHSPGK
notes: also called cIL-13Ra2-cIgGB-Fc-LF; H433L/N434F
Take B2: the Kd stood at 2.27 nM in experiment [1] and 226 nM in experiment [2].

B3: cIL-13Rα2-cIgGB-Fc-Y (Fc fusion)
chain: SMLSNAEIKVNPPQDFEIVDPGYLGYLSLQWQPPLFPDNFKECTIEYELKYRNIDSENWKTIITKNLHYKDGFDLNKGIEAKINTLLPAQCTNGSEVRSSWAETTYWTSPQGNRETKIQDMDCVYYNWQYLVCSWKPGMGVHFDTNYQLFYWYEGLDHSAECTDYIKVNGKNMGCRFPYLESSDYKDFYICVNGSSESQPIRPSYFIFQLQNIVKPMPPDYLSLTVKNSEEINLKWNMPKGPIPAKCFIYEIEFTEDGTTWVTTTVENEIQITRTSNESQKLCFLVRSKVNIYCSDDGIWSEWSDEQCWKGDIWKETPKRENGRVPRPPDCPKCPAPEMLGGPSVFIFPPKPKDTLLIARTPEVTCVVVDLDPEDPEVQISWFVDGKQMQTAKTQPREEQFNGTYRVVSVLPIGHQDWLKGKQFTCKVNNKALPSPIERTISKARGQAHQPSVYVLPPSREELSKNTVSLTCLIKDFFPPDIDVEWQSNGQQEPESKYRTTPPQLDEDGSYFLYSKLSVDKSRWQRGDTFICAVMHEALHYHYTQESLSHSPGK
notes: Made in ExpiCHO, Protein A purified; also called cIL-13Ra2-cIgGB-Fc-Y; N434Y
As to B3, the Kd in experiment [1] worked out at 0.11 nM; in experiment [2], 187 nM.

B4: cIL-13Rα2-cIgGB-Fc-LYT (Fc fusion)
chain: SMLSNAEIKVNPPQDFEIVDPGYLGYLSLQWQPPLFPDNFKECTIEYELKYRNIDSENWKTIITKNLHYKDGFDLNKGIEAKINTLLPAQCTNGSEVRSSWAETTYWTSPQGNRETKIQDMDCVYYNWQYLVCSWKPGMGVHFDTNYQLFYWYEGLDHSAECTDYIKVNGKNMGCRFPYLESSDYKDFYICVNGSSESQPIRPSYFIFQLQNIVKPMPPDYLSLTVKNSEEINLKWNMPKGPIPAKCFIYEIEFTEDGTTWVTTTVENEIQITRTSNESQKLCFLVRSKVNIYCSDDGIWSEWSDEQCWKGDIWKETPKRENGRVPRPPDCPKCPAPEMLGGPSVFIFPPKPKDTLLIARTPEVTCVVVDLDPEDPEVQISWFVDGKQMQTAKTQPREEQFNGTYRVVSVLPIGHQDWLKGKQFTCKVNNKALPSPIERTISKARGQAHQPSVYVLPPSREELSKNTVSLTCLIKDFFPPDIDVEWQSNGQQEPESKYRTTPPQLDEDGSYFLYSKLSVDKSRWQRGDTFICAVMHEALLYHTTQESLSHSPGK
notes: also called cIL-13Ra2-cIgGB-Fc-LYT; H433L/N434Y/Y436T
In the case of B4, the Kd was determined as 3.32 nM in experiment [1] and 127 nM in experiment [2].

B5: cIL-13Rα2-cIgGB-Fc-T (Fc fusion)
chain: SMLSNAEIKVNPPQDFEIVDPGYLGYLSLQWQPPLFPDNFKECTIEYELKYRNIDSENWKTIITKNLHYKDGFDLNKGIEAKINTLLPAQCTNGSEVRSSWAETTYWTSPQGNRETKIQDMDCVYYNWQYLVCSWKPGMGVHFDTNYQLFYWYEGLDHSAECTDYIKVNGKNMGCRFPYLESSDYKDFYICVNGSSESQPIRPSYFIFQLQNIVKPMPPDYLSLTVKNSEEINLKWNMPKGPIPAKCFIYEIEFTEDGTTWVTTTVENEIQITRTSNESQKLCFLVRSKVNIYCSDDGIWSEWSDEQCWKGDIWKETPKRENGRVPRPPDCPKCPAPEMLGGPSVFIFPPKPKDTLLIARTPEVTCVVVDLDPEDPEVQISWFVDGKQMQTAKTQPREEQFNGTYRVVSVLPIGHQDWLKGKQFTCKVNNKALPSPIERTISKARGQAHQPSVYVLPPSREELSKNTVSLTCLIKDFFPPDIDVEWQSNGQQEPESKYRTTPPQLDEDGSYFLYSKLSVDKSRWQRGDTFICAVMHEALHNHTTQESLSHSPGK
notes: also called cIL-13Ra2-cIgGB-Fc-T; Y436T
In the case of B5, the Kd in experiment [1] stood at 5.95 nM; in experiment [2], 6120 nM.

B6: cIL-13Rα2-cIgGB-Fc-LY (Fc fusion)
chain: SMLSNAEIKVNPPQDFEIVDPGYLGYLSLQWQPPLFPDNFKECTIEYELKYRNIDSENWKTIITKNLHYKDGFDLNKGIEAKINTLLPAQCTNGSEVRSSWAETTYWTSPQGNRETKIQDMDCVYYNWQYLVCSWKPGMGVHFDTNYQLFYWYEGLDHSAECTDYIKVNGKNMGCRFPYLESSDYKDFYICVNGSSESQPIRPSYFIFQLQNIVKPMPPDYLSLTVKNSEEINLKWNMPKGPIPAKCFIYEIEFTEDGTTWVTTTVENEIQITRTSNESQKLCFLVRSKVNIYCSDDGIWSEWSDEQCWKGDIWKETPKRENGRVPRPPDCPKCPAPEMLGGPSVFIFPPKPKDTLLIARTPEVTCVVVDLDPEDPEVQISWFVDGKQMQTAKTQPREEQFNGTYRVVSVLPIGHQDWLKGKQFTCKVNNKALPSPIERTISKARGQAHQPSVYVLPPSREELSKNTVSLTCLIKDFFPPDIDVEWQSNGQQEPESKYRTTPPQLDEDGSYFLYSKLSVDKSRWQRGDTFICAVMHEALLYHYTQESLSHSPGK
notes: also called cIL-13Ra2-cIgGB-Fc-LY; H433L/N434Y
As to B6, the figures for the Kd in experiment [1] and in experiment [2] were 2.35 nM and 298 nM, respectively.

B7: cIL-13Rα2-cIgGB-Fc-PY (Fc fusion)
chain: SMLSNAEIKVNPPQDFEIVDPGYLGYLSLQWQPPLFPDNFKECTIEYELKYRNIDSENWKTIITKNLHYKDGFDLNKGIEAKINTLLPAQCTNGSEVRSSWAETTYWTSPQGNRETKIQDMDCVYYNWQYLVCSWKPGMGVHFDTNYQLFYWYEGLDHSAECTDYIKVNGKNMGCRFPYLESSDYKDFYICVNGSSESQPIRPSYFIFQLQNIVKPMPPDYLSLTVKNSEEINLKWNMPKGPIPAKCFIYEIEFTEDGTTWVTTTVENEIQITRTSNESQKLCFLVRSKVNIYCSDDGIWSEWSDEQCWKGDIWKETPKRENGRVPRPPDCPKCPAPEMLGGPSVFIFPPKPKDTLLIARTPEVTCVVVDLDPEDPEVQISWFVDGKQMQTAKTQPREEQFNGTYRVVSVLPPGHQDWLKGKQFTCKVNNKALPSPIERTISKARGQAHQPSVYVLPPSREELSKNTVSLTCLIKDFFPPDIDVEWQSNGQQEPESKYRTTPPQLDEDGSYFLYSKLSVDKSRWQRGDTFICAVMHEALHYHYTQESLSHSPGK
notes: also called cIL-13Ra2-cIgGB-Fc-PY; I308P/N434Y
Take B7: the values for the Kd in experiment [1] and in experiment [2] were 0.3 nM and 20.4 nM, respectively.

B8: cIL-13Rα2-cIgGB-Fc-LFT (Fc fusion)
chain: SMLSNAEIKVNPPQDFEIVDPGYLGYLSLQWQPPLFPDNFKECTIEYELKYRNIDSENWKTIITKNLHYKDGFDLNKGIEAKINTLLPAQCTNGSEVRSSWAETTYWTSPQGNRETKIQDMDCVYYNWQYLVCSWKPGMGVHFDTNYQLFYWYEGLDHSAECTDYIKVNGKNMGCRFPYLESSDYKDFYICVNGSSESQPIRPSYFIFQLQNIVKPMPPDYLSLTVKNSEEINLKWNMPKGPIPAKCFIYEIEFTEDGTTWVTTTVENEIQITRTSNESQKLCFLVRSKVNIYCSDDGIWSEWSDEQCWKGDIWKETPKRENGRVPRPPDCPKCPAPEMLGGPSVFIFPPKPKDTLLIARTPEVTCVVVDLDPEDPEVQISWFVDGKQMQTAKTQPREEQFNGTYRVVSVLPIGHQDWLKGKQFTCKVNNKALPSPIERTISKARGQAHQPSVYVLPPSREELSKNTVSLTCLIKDFFPPDIDVEWQSNGQQEPESKYRTTPPQLDEDGSYFLYSKLSVDKSRWQRGDTFICAVMHEALLFHTTQESLSHSPGK
notes: also called cIL-13Ra2-cIgGB-Fc-LFT; H433L/N434F/Y436T
Turning to B8, the figures for the Kd in experiment [1] and in experiment [2] were 2.87 nM and 905 nM, respectively.
